This assay addresses T1, GST-nsp13 (Glutathione S-Transferase-tagged nsp13 of SARS-CoV) (SARS-CoV, UniProt P0C6X7 5302-5902).
T1 construct: also called SARS-CoV helicase; non-structural protein 13; not shown: GST, N-terminal, kept
As to the kind of experiment: pull-down. The following applies: both partners purified.

B1: nsp12-H6 (C-terminal hexahistidine containing nsp12, SARS-CoV RNA-dependent RNA polymerase) (enzyme)
chain: SADASTFLNRVCGVSAARLTPCGTGTSTDVVYRAFDIYNEKVAGFAKFLKTNCCRFQEKDEEGNLLDSYFVVKRHTMSNYQHEETIYNLVKDCPAVAVHDFFKFRVDGDMVPHISRQRLTKYTMADLVYALRHFDEGNCDTLKEILVTYNCCDDDYFNKKDWYDFVENPDILRVYANLGERVRQSLLKTVQFCDAMRDAGIVGVLTLDNQDLNGNWYDFGDFVQVAPGCGVPIVDSYYSLLMPILTLTRALAAESHMDADLAKPLIKWDLLKYDFTEERLCLFDRYFKYWDQTYHPNCINCLDDRCILHCANFNVLFSTVFPPTSFGPLVRKIFVDGVPFVVSTGYHFRELGVVHNQDVNLHSSRLSFKELLVYAADPAMHAASGNLLLDKRTTCFSVAALTNNVAFQTVKPGNFNKDFYDFAVSKGFFKEGSSVELKHFFFAQDGNAAISDYDYYRYNLPTMCDIRQLLFVVEVVDKYFDCYDGGCINANQVIVNNLDKSAGFPFNKWGKARLYYDSMSYEDQDALFAYTKRNVIPTITQMNLKYAISAKNRARTVAGVSICSTMTNRQFHQKLLKSIAATRGATVVIGTSKFYGGWHNMLKTVYSDVETPHLMGWDYPKCDRAMPNMLRIMASLVLARKHNTCCNLSHRFYRLANECAQVLSEMVMCGGSLYVKPGGTSSGDATTAYANSVFNICQAVTANVNALLSTDGNKIADKYVRNLQHRLYECLYRNRDVDHEFVDEFYAYLRKHFSMMILSDDAVVCYNSNYAAQGLVASIKNFKAVLYYQNNVFMSEAKCWTETDLTKGPHEFCSQHTMLVKQGDDYVYLPYPDPSRILGAGCFVDDIVKTDGTLMIERFVSLAIDAYPLTKHPNQEYADVFHLYLQYIRKLHDELTGHMLDMYSVMLTNDNTSRYWEPEFYEAMYTPHTVLQ
notes: also called SARS-CoV polymerase; SARS-CoV RdRp
With B1, the binding result was “binds”.

Values taken from paper PMC3352918, “Mechanism of Nucleic Acid Unwinding by SARS-CoV Helicase” (PLoS ONE, 2012).
